Measurements taken from patent US20160068822A1.

Assays:
[1] = biological target: TALE(KLF4)-NLS-CRY2PHR; test: cell-based or functional assay
[2] = biological target: TALE(Ngn2)-NLS-CRY2PHR; test: cell-based or functional assay

CIB1-NLS-VP64-2A_GFP
KLF4 mRNA upregulation, saturated at 5 mW/cm2 (HEK293FT cells) [1]: 2.3 fold | Neurog2 expression peak at 12 h of light stimulation [2]: 19 fold | Neurog2 mRNA level 0.5 h after the end of a 6 h stimulation [2]: 16 fold | upregulation of Neurog2 expression at 0.5 h of light stimulation [2]: 5 fold
